Patent publication US20260347476 (published 2026)

Tests used:
[1] = target: T1, IL-15Rbetagamma heterodimer (human, UniProt P14784); experiment: SPR, PD1 capture
T1 chain 1: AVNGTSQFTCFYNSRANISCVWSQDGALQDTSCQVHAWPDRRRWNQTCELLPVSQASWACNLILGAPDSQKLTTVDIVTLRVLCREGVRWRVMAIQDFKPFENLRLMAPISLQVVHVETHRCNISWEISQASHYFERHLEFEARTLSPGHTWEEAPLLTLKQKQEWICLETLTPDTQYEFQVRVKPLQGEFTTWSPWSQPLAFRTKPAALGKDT
T1 chain 2: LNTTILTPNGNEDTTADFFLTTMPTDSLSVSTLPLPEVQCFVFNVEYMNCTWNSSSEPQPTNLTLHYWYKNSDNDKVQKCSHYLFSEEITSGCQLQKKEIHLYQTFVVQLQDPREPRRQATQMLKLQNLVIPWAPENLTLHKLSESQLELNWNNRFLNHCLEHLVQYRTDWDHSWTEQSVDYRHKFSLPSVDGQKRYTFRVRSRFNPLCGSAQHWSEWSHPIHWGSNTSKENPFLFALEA

[2] = target: T1, IL-15Rbetagamma heterodimer; experiment: SPR, anti-human Fc capture
IL-15 [3] = target: T2, IL-15 (human, UniProt P40933); experiment: SPR, PD1 capture
IL-15 [4] = target: T2, IL-15; experiment: SPR, anti-human Fc capture

T2 sequence (P40933 49-162): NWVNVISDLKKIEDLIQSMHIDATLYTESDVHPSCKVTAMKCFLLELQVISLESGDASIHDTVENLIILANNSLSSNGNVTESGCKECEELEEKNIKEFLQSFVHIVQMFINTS

| Binder | Kd [1] | Kd [2] | Kd (IL-15 [3]) | Kd (IL-15 [4]) |
| --- | --- | --- | --- | --- |
| RV36:IL-15 complex (antibody) chain 1: QVQLVQSGAEVKKPGASVKVSCKASGYSFSSFGISWVRQAPGQGLEWLGWISAFNGYTKYAQKFQDRVTMTTDTSTSTAYMELRSLRSDDTAVYYCARDPAAWPLQQSLAWFDPWGQGTMVTVSS chain 2: QSVLTQPPSASGTPGQRVTISCSGSTSNLKRNYVYWYQQLPGTAPKLLIYRDRRRPSGVPDRFSGSKSGTSASLAISGLRSEDEADYYCAWYDRELSEWVFGGGTKLTVL chain 3: not shown | 1.07 nM | 0.771 nM | – | – |
| RV32:IL-15 complex (antibody) chain 1: QVQLVQSGAEVKKPGASVKVSCKASGYSFSSFGISWVRQAPGQGLEWLGWISAFNGYTKYAQKFQDRVTMTTDTSTSTAYMELRSLRSDDTAVYYCARDPAAWPLQQSLAWFDPWGQGTMVTVSS chain 2: QSVLTQPPSASGTPGQRVTISCSGSTSNLKRNYVYWYQQLPGTAPKLLIYRDRRRPSGVPDRFSGSKSGTSASLAISGLRSEDEADYYCAWYDRELSEWVFGGGTKLTVL chain 3: not shown | 1.45 nM | 0.742 nM | – | – |
| RV1:IL-15 complex (antibody) chain 1: QVQLVQSGAEVKKPGASVKVSCKASGYSFSSFGISWVRQAPGQGLEWLGWISAFNGYTKYAQKFQDRVTMTTDTSTSTAYMELRSLRSDDTAVYYCARDPAAWPLQQSLAWFDPWGQGTMVTVSS chain 2: QSVLTQPPSASGTPGQRVTISCSGSTSNLKRNYVYWYQQLPGTAPKLLIYRDRRRPSGVPDRFSGSKSGTSASLAISGLRSEDEADYYCAWYDRELSEWVFGGGTKLTVL chain 3: not shown | – | 0.705 nM | – | – |
| RV31:IL-15 complex (antibody) chain 1: QVQLVQSGAEVKKPGASVKVSCKASGYSFSSFGISWVRQAPGQGLEWLGWISAFNGYTKYAQKFQDRVTMTTDTSTSTAYMELRSLRSDDTAVYYCARDPAAWPLQQSLAWFDPWGQGTMVTVSS chain 2: QSVLTQPPSASGTPGQRVTISCSGSTSNLKRNYVYWYQQLPGTAPKLLIYRDRRRPSGVPDRFSGSKSGTSASLAISGLRSEDEADYYCAWYDRELSEWVFGGGTKLTVL chain 3: not shown | 0.981 nM | 0.979 nM | – | – |
| RV37 IL-15 arm (antibody, V domains shown) VH: QVQLVQSGAEVKKPGASVKVSCKASGYSFSSFGISWVRQAPGQGLEWLGWISAFNGYTKYAQKFQDRVTMTTDTSTSTAYMELRSLRSDDTAVYYCARDPAAWPLQQSLAWFDPWGQGTMVTVSS VL: QSVLTQPPSASGTPGQRVTISCSGSTSNLKRNYVYWYQQLPGTAPKLLIYRDRRRPSGVPDRFSGSKSGTSASLAISGLRSEDEADYYCAWYDRELSEWVFGGGTKLTVL | – | – | 0.227 nM | 0.0664 nM |
| RV26:IL-15 complex (antibody) chain 1: QVQLVQSGAEVKKPGASVKVSCKASGYSFSSFGISWVRQAPGQGLEWLGWISAFNGYTKYAQKFQDRVTMTTDTSTSTAYMELRSLRSDDTAVYYCARDPAAWPLQQSLAWFDPWGQGTMVTVSS chain 2: QSVLTQPPSASGTPGQRVTISCSGSTSNLKRNYVYWYQQLPGTAPKLLIYRDRRRPSGVPDRFSGSKSGTSASLAISGLRSEDEADYYCAWYDRELSEWVFGGGTKLTVL chain 3: not shown | 1.53 nM | 1.36 nM | – | – |
| RV29 IL-15 arm (antibody, V domains shown) VH: QVQLVQSGAEVKKPGASVKVSCKASGYSFSSFGISWVRQAPGQGLEWLGWISAFNGYTKYAQKFQDRVTMTTDTSTSTAYMELRSLRSDDTAVYYCARDPAAWPLQQSLAWFDPWGQGTMVTVSS VL: QSVLTQPPSASGTPGQRVTISCSGSTSNLKRNYVYWYQQLPGTAPKLLIYRDRRRPSGVPDRFSGSKSGTSASLAISGLRSEDEADYYCAWYDRELSEWVFGGGTKLTVL | – | – | 0.339 nM | 0.114 nM |
| RV19 IL-15 arm (antibody, V domains shown) VH: QVQLVQSGAEVKKPGASVKVSCKASGYSFSSFGISWVRQAPGQGLEWLGWISAFNGYTKYAQKFQDRVTMTTDTSTSTAYMELRSLRSDDTAVYYCARDPAAWPLQQSLAWFDPWGQGTMVTVSS VL: QSVLTQPPSASGTPGQRVTISCSGSTSNLKRNYVYWYQQLPGTAPKLLIYRDRRRPSGVPDRFSGSKSGTSASLAISGLRSEDEADYYCAWYDRELSEWVFGGGTKLTVL | – | – | – | 0.0847 nM |
| RV15:IL-15 complex (antibody) chain 1: QVQLVQSGAEVKKPGASVKVSCKASGYSFSSFGISWVRQAPGQGLEWLGWISAFNGYTKYAQKFQDRVTMTTDTSTSTAYMELRSLRSDDTAVYYCARDPAAWPLQQSLAWFDPWGQGTMVTVSS chain 2: QSVLTQPPSASGTPGQRVTISCSGSTSNLKRNYVYWYQQLPGTAPKLLIYRDRRRPSGVPDRFSGSKSGTSASLAISGLRSEDEADYYCAWYDRELSEWVFGGGTKLTVL chain 3: not shown | 0.722 nM | 0.804 nM | – | – |
| RV26 IL-15 arm (antibody, V domains shown) VH: QVQLVQSGAEVKKPGASVKVSCKASGYSFSSFGISWVRQAPGQGLEWLGWISAFNGYTKYAQKFQDRVTMTTDTSTSTAYMELRSLRSDDTAVYYCARDPAAWPLQQSLAWFDPWGQGTMVTVSS VL: QSVLTQPPSASGTPGQRVTISCSGSTSNLKRNYVYWYQQLPGTAPKLLIYRDRRRPSGVPDRFSGSKSGTSASLAISGLRSEDEADYYCAWYDRELSEWVFGGGTKLTVL | – | – | – | 0.396 nM |
| RV15 IL-15 arm (antibody, V domains shown) VH: QVQLVQSGAEVKKPGASVKVSCKASGYSFSSFGISWVRQAPGQGLEWLGWISAFNGYTKYAQKFQDRVTMTTDTSTSTAYMELRSLRSDDTAVYYCARDPAAWPLQQSLAWFDPWGQGTMVTVSS VL: QSVLTQPPSASGTPGQRVTISCSGSTSNLKRNYVYWYQQLPGTAPKLLIYRDRRRPSGVPDRFSGSKSGTSASLAISGLRSEDEADYYCAWYDRELSEWVFGGGTKLTVL | – | – | – | 0.108 nM |
| RV29:IL-15 complex (antibody) chain 1: QVQLVQSGAEVKKPGASVKVSCKASGYSFSSFGISWVRQAPGQGLEWLGWISAFNGYTKYAQKFQDRVTMTTDTSTSTAYMELRSLRSDDTAVYYCARDPAAWPLQQSLAWFDPWGQGTMVTVSS chain 2: QSVLTQPPSASGTPGQRVTISCSGSTSNLKRNYVYWYQQLPGTAPKLLIYRDRRRPSGVPDRFSGSKSGTSASLAISGLRSEDEADYYCAWYDRELSEWVFGGGTKLTVL chain 3: not shown | 0.72 nM | 0.732 nM | – | – |
| RV17:IL-15 complex (antibody) chain 1: QVQLVQSGAEVKKPGASVKVSCKASGYSFSSFGISWVRQAPGQGLEWLGWISAFNGYTKYAQKFQDRVTMTTDTSTSTAYMELRSLRSDDTAVYYCARDPAAWPLQQSLAWFDPWGQGTMVTVSS chain 2: QSVLTQPPSASGTPGQRVTISCSGSTSNLKRNYVYWYQQLPGTAPKLLIYRDRRRPSGVPDRFSGSKSGTSASLAISGLRSEDEADYYCAWYDRELSEWVFGGGTKLTVL chain 3: not shown | – | 0.99 nM | – | – |
| RV17 IL-15 arm (antibody, V domains shown) VH: QVQLVQSGAEVKKPGASVKVSCKASGYSFSSFGISWVRQAPGQGLEWLGWISAFNGYTKYAQKFQDRVTMTTDTSTSTAYMELRSLRSDDTAVYYCARDPAAWPLQQSLAWFDPWGQGTMVTVSS VL: QSVLTQPPSASGTPGQRVTISCSGSTSNLKRNYVYWYQQLPGTAPKLLIYRDRRRPSGVPDRFSGSKSGTSASLAISGLRSEDEADYYCAWYDRELSEWVFGGGTKLTVL | – | – | – | 0.106 nM |
| RV32 IL-15 arm (antibody, V domains shown) VH: QVQLVQSGAEVKKPGASVKVSCKASGYSFSSFGISWVRQAPGQGLEWLGWISAFNGYTKYAQKFQDRVTMTTDTSTSTAYMELRSLRSDDTAVYYCARDPAAWPLQQSLAWFDPWGQGTMVTVSS VL: QSVLTQPPSASGTPGQRVTISCSGSTSNLKRNYVYWYQQLPGTAPKLLIYRDRRRPSGVPDRFSGSKSGTSASLAISGLRSEDEADYYCAWYDRELSEWVFGGGTKLTVL | – | – | 0.352 nM | 0.108 nM |
| RV1 (anti-IL-15 mAb DISC0280) (antibody, V domains shown) VH: QVQLVQSGAEVKKPGASVKVSCKASGYSFSSFGISWVRQAPGQGLEWLGWISAFNGYTKYAQKFQDRVTMTTDTSTSTAYMELRSLRSDDTAVYYCARDPAAWPLQQSLAWFDPWGQGTMVTVSS VL: QSVLTQPPSASGTPGQRVTISCSGSTSNLKRNYVYWYQQLPGTAPKLLIYRDRRRPSGVPDRFSGSKSGTSASLAISGLRSEDEADYYCAWYDRELSEWVFGGGTKLTVL | – | – | – | 0.349 nM |
| RV18:IL-15 complex (antibody) chain 1: QVQLVQSGAEVKKPGASVKVSCKASGYSFSSFGISWVRQAPGQGLEWLGWISAFNGYTKYAQKFQDRVTMTTDTSTSTAYMELRSLRSDDTAVYYCARDPAAWPLQQSLAWFDPWGQGTMVTVSS chain 2: QSVLTQPPSASGTPGQRVTISCSGSTSNLKRNYVYWYQQLPGTAPKLLIYRDRRRPSGVPDRFSGSKSGTSASLAISGLRSEDEADYYCAWYDRELSEWVFGGGTKLTVL chain 3: not shown | 0.239 nM | 1.02 nM | – | – |
| RV18 IL-15 arm (antibody, V domains shown) VH: QVQLVQSGAEVKKPGASVKVSCKASGYSFSSFGISWVRQAPGQGLEWLGWISAFNGYTKYAQKFQDRVTMTTDTSTSTAYMELRSLRSDDTAVYYCARDPAAWPLQQSLAWFDPWGQGTMVTVSS VL: QSVLTQPPSASGTPGQRVTISCSGSTSNLKRNYVYWYQQLPGTAPKLLIYRDRRRPSGVPDRFSGSKSGTSASLAISGLRSEDEADYYCAWYDRELSEWVFGGGTKLTVL | – | – | – | 0.0769 nM |
| RV19:IL-15 complex (antibody) chain 1: QVQLVQSGAEVKKPGASVKVSCKASGYSFSSFGISWVRQAPGQGLEWLGWISAFNGYTKYAQKFQDRVTMTTDTSTSTAYMELRSLRSDDTAVYYCARDPAAWPLQQSLAWFDPWGQGTMVTVSS chain 2: QSVLTQPPSASGTPGQRVTISCSGSTSNLKRNYVYWYQQLPGTAPKLLIYRDRRRPSGVPDRFSGSKSGTSASLAISGLRSEDEADYYCAWYDRELSEWVFGGGTKLTVL chain 3: not shown | – | 1.17 nM | – | – |
